Test results taken from article PMC8429438, “DnaJC7 binds natively folded structural elements in tau to inhibit amyloid formation” (Nature Communications, 2021).
Positions count from the first letter of the chain named. Several values for one entry are separate records, joined by “and”; a condition that tells them apart may be missing. Equal values may be shown once.

Columns and labels:
[1] = molecular target: T1, recombinant tau monomer seed (human, UniProt P10636-8 1-441, Cy5 (Cyanine5 NHS ester) label in MST); assay: MST; Cy5-labelled wild-type or mutant tau/tauRD titrated with a serial two-fold dilution of DnaJC7 or single DnaJC7 domains; Monolith NT.115; technical triplicates; fit in PALMIST with a 1:1 binding model; conditions: both partners purified
T1 construct: Probably made from the full-length 2N4R tau of m5; the methods say only 'wild-type tau'; also called tau monomer seeds; tau seeds; source: wild-type tau from E. coli BL21 (DE3) incubated 1:1 with heparin for 1 h at 37 °C, isolated on Superdex 200

[2] = molecular target: T2, full-length 2N4R wild-type tau (human, UniProt P10636-8 1-441, Cy5 (Cyanine5 NHS ester) label in MST); assay: as above; conditions: both partners purified
T2 construct: microtubule-associated protein tau, 2N4R isoform, full length; also called WT tau; full-length tau; source: E. coli BL21 (DE3), pET28b, purified

[3] = molecular target: T2, full-length 2N4R wild-type tau; assay: cell-based or functional assay
[4] = molecular target: T3, full-length 2N4R wild-type tau (human, UniProt P10636-8 1-441, Cy5 (Cyanine5 NHS ester) label in the MST assays; unlabelled in cross-linking and aggregation assays); assay: MST; WT tau or P301L tau labelled with Cyanine5 NHS ester dye (Cy5) and titrated by a serial two-fold dilution of DnaJC7 domains; n=3; Nanotemper Monolith NT.115; 1:1 binding model; conditions: both partners purified
T3 construct: microtubule-associated protein tau, 2N4R isoform; also called WT tau; WT TAU; source: E. coli BL21 (DE3), pET28b, purified

[5] = molecular target: T4, full-length 2N4R P301L tau (human, UniProt P10636-8 1-441, P301L, Cy5 (Cyanine5 NHS ester) label in the MST assays; unlabelled in cross-linking and aggregation assays); assay: as above; conditions: both partners purified
T4 construct: microtubule-associated protein tau, 2N4R isoform, with the frontotemporal dementia disease-associated P301L mutation; source: E. coli BL21 (DE3), pET28b, purified

[6] = molecular target: T5, full-length 2N4R P301L tau (human, UniProt P10636-8 1-441, P301L, Cy5 (Cyanine5 NHS ester) label in MST); assay: MST; Cy5-labelled wild-type or mutant tau/tauRD titrated with a serial two-fold dilution of DnaJC7 or single DnaJC7 domains; Monolith NT.115; technical triplicates; fit in PALMIST with a 1:1 binding model; conditions: both partners purified
T5 construct: microtubule-associated protein tau, 2N4R isoform, full length, with the disease-associated P301L mutation; also called full-length P301L tau mutant; source: E. coli BL21 (DE3), pET28b, purified
T5 sequence (P10636 other isoform, or with tags, fused parts or gaps P301L | P301L | P301L P301L): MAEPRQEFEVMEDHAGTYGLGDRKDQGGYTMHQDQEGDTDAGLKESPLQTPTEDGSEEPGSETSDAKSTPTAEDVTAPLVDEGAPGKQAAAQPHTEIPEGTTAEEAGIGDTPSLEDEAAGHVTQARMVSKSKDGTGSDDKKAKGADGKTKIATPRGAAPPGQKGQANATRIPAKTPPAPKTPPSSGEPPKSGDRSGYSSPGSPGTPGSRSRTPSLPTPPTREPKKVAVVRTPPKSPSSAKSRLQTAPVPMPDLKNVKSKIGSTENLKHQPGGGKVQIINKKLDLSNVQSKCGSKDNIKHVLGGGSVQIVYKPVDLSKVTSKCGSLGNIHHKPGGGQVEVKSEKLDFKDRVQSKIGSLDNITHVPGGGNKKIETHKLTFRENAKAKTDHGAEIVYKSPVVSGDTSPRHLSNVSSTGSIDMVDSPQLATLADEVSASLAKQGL

T2 sequence (P10636 other isoform, or with tags, fused parts or gaps): as the sequence (P10636 other isoform, or with tags, fused parts or gaps P301L | P301L | P301L P301L) above, with L301P counted along it
T4 sequence (P10636 other isoform, or with tags, fused parts or gaps P301L | P301L | P301L P301L): as the sequence (P10636 other isoform, or with tags, fused parts or gaps P301L | P301L | P301L P301L) above
T3 sequence (P10636 other isoform, or with tags, fused parts or gaps): as the sequence (P10636 other isoform, or with tags, fused parts or gaps P301L | P301L | P301L P301L) above, with L301P counted along it
T1 sequence (P10636 other isoform, or with tags, fused parts or gaps): as the sequence (P10636 other isoform, or with tags, fused parts or gaps P301L | P301L | P301L P301L) above, with L301P counted along it

B1: DnaJC7 (full-length, wild type, recombinant) (natural protein, UniProt Q99615 1-494, looked up)
chain: MAAAAECDVVMAATEPELLDDQEAKREAETFKEQGNAYYAKKDYNEAYNYYTKAIDMCPKNASYYGNRAATLMMLGRFREALGDAQQSVRLDDSFVRGHLREGKCHLSLGNAMAACRSFQRALELDHKNAQAQQEFKNANAVMEYEKIAETDFEKRDFRKVVFCMDRALEFAPACHRFKILKAECLAMLGRYPEAQSVASDILRMDSTNADALYVRGLCLYYEDCIEKAVQFFVQALRMAPDHEKACIACRNAKALKAKKEDGNKAFKEGNYKLAYELYTEALGIDPNNIKTNAKLYCNRGTVNSKLRKLDDAIEDCTNAVKLDDTYIKAYLRRAQCYMDTEQYEEAVRDYEKVYQTEKTKEHKQLLKNAQLELKKSKRKDYYKILGVDKNASEDEIKKAYRKRALMHHPDRHSGASAEVQKEEEKKFKEVGEAFTILSDPKKKTRYDSGQDLDEEGMNMGDFDPNNIFKAFFGGPGGFSFEASGPGNFFFQFG
notes: DnaJC7, class-C J-domain protein with TPR1, TPR2a, TPR2b and a C-terminal J domain; called full-length DnaJC7; Plasmid was a gift (A. Joachimiak); also called DnaJC7WT; WT DnaJC7
Kd [1]: 15.5 ± 2.2 µM
Kd [2]: 0.471 µM and 0.343 µM
ThT fluorescence of 4.4 µM WT tau seeded with 50 nM tau monomer seeds with equimolar DnaJC7WT over 100 h, relative to the seeded tau control [3]: 20%

B2: DnaJC7_(TPR2b_mut) (full-length DnaJC7 with six alanine mutations in the TPR2b binding groove) (natural protein, UniProt Q99615 1-494, looked up)
chain: B1 chain with K260A, N264A, F267A, K268A, E269A, Y272A
notes: also called DnaJC7_(TPR2_mut); source: recombinant from pET29b (NdeI/XhoI)
Kd [2]: 6 ± 1.2 µM

B3: DnaJC7 TPR2a domain (141-270) (domain or fragment, UniProt Q99615 141-270, looked up)
chain: AVMEYEKIAETDFEKRDFRKVVFCMDRALEFAPACHRFKILKAECLAMLGRYPEAQSVASDILRMDSTNADALYVRGLCLYYEDCIEKAVQFFVQALRMAPDHEKACIACRNAKALKAKKEDGNKAFKEG
notes: DnaJC7, TPR2a domain, residues 141-270; also called TPR2a_(141-270); not shown: His tag (from the vector pMCSG7)
Kd [4]: 0.202 µM
Kd [5]: 0.67 µM

B4: DnaJC7 TPR2a domain (TPR2a 141-270) (domain or fragment, UniProt Q99615 141-270, looked up)
chain: B3 chain
notes: DnaJC7 residues 141-270, TPR2a domain
fold tighter binding than full-length DnaJC7 [2]: > 2 fold
fold increase in binding affinity relative to full-length DnaJC7 [6]: > 12 fold

B5: DnaJC7 TPR1 domain (20-156) (domain or fragment, UniProt Q99615 20-156, looked up)
chain: DDQEAKREAETFKEQGNAYYAKKDYNEAYNYYTKAIDMCPKNASYYGNRAATLMMLGRFREALGDAQQSVRLDDSFVRGHLREGKCHLSLGNAMAACRSFQRALELDHKNAQAQQEFKNANAVMEYEKIAETDFEKR
notes: DnaJC7, TPR1 domain, residues 20-156; also called TPR1_(20-156); not shown: His tag (from the vector pMCSG7)
Kd [5]: 0.404 µM

B6: DnaJC7 TPR1 domain (TPR1 20-156) (domain or fragment, UniProt Q99615 20-156, looked up)
chain: B5 chain
notes: DnaJC7 residues 20-156, TPR1 domain
Kd [2]: 0.084 µM
fold increase in binding affinity relative to full-length DnaJC7 [6]: > 12 fold

B7: DnaJC7 J domain (JD 380-494) (domain or fragment, UniProt Q99615 380-494, looked up)
chain: KDYYKILGVDKNASEDEIKKAYRKRALMHHPDRHSGASAEVQKEEEKKFKEVGEAFTILSDPKKKTRYDSGQDLDEEGMNMGDFDPNNIFKAFFGGPGGFSFEASGPGNFFFQFG
notes: DnaJC7 residues 380-494, C-terminal J domain; also called J domain_(380-494)
Kd [2]: 8.2 µM
Kd [6]: 28.2 µM

B8: DnaJC7 TPR2b domain (255-370) (domain or fragment, UniProt Q99615 255-370, looked up)
chain: ALKAKKEDGNKAFKEGNYKLAYELYTEALGIDPNNIKTNAKLYCNRGTVNSKLRKLDDAIEDCTNAVKLDDTYIKAYLRRAQCYMDTEQYEEAVRDYEKVYQTEKTKEHKQLLKNA
notes: also called TPR2b_(255-370); TPR2b_(253-370); not shown: His tag (from the vector pMCSG7)
Kd [5]: 0.507 µM

B9: DnaJC7 TPR2b domain (TPR2b 255-370) (domain or fragment, UniProt Q99615 255-370, looked up)
chain: B8 chain
notes: also called TPR2b_(253-370)
Kd [2]: 0.075 µM
fold increase in binding affinity relative to full-length DnaJC7 [6]: > 12 fold
